Data on 33 molecules can be found in US20230228751 (APTAMER DIAGNOSTICS LIMITED, published 2023).

Common to all, as to test: BLI
In data set [1] the target is SARS-CoV-2 spike S1 subunit (SARS-CoV-2, UniProt P0DTC2 SEQ:1-670). The settings on record: tags: His tag, SinoBiological 40591-V08B1; label: 5'-biotin.
The target of data set [2] is SARS-CoV spike S1 subunit (SARS-CoV, UniProt P59594 SEQ:14-667). The settings on record: tags: SinoBiological.
Another data set deals with SARS-CoV-2 spike RBD (SARS-CoV-2, UniProt P0DTC2 SEQ:1-223). Conditions: tags: His tag, SinoBiological 40592-V08H.

CCAGTGTAGACTACTCAATGCGTGGGAAGGGTGGGTGGGAGCATTGAT (ssDNA) [S1_A3_F10]: the binding result in data set [1] is “binds”.

B1: S1_A3-B (ssDNA)
DNA: CCAGTGTAGACTACTCAATGCCGATGGGTCGGGGGGGTGGGTAGGCATTGATCGCTCCTTTCGTACTATCCACAGGTCAACC
In the case of B1, the binding result is given as “no binding” in data set [2] (label: 5'-biotin), “binds” with SARS-CoV-2 spike RBD (label: 5' biotin) and “binds” in data set [1].

B2: S1_A1-A (ssDNA)
DNA: CCAGTGTAGACTACTCAATGCCGATGGGTCGGGTGGGTGGGTAGGCATTGATCGCTCCTTCCGTACTATCCACAGGTCAACC
With B2, the binding result is given as “no binding” in data set [2] (label: 5' biotin), “binds” in the data set with SARS-CoV-2 spike RBD (label: 5' biotin) and “binds” in data set [1].

B3: S1_C8 (ssDNA)
DNA: CCAGTGTAGACTACTCAATGCCGATGGGTCGGGGGGGTGGGTAGGCATTGATCATTCCTTTCGTACTATCCACAGGTCAACC
As to B3, the values for the binding result (in data set [2] (label: 5'-biotin); in the data set with SARS-CoV-2 spike RBD (label: 5' biotin); in data set [1]) were “no binding”, “binds” and “binds”, respectively.

B4: S1_B3 (ssDNA)
DNA: CCAGTGTAGACTACTCAATGCCGATGGGTCGGGGGGGTGGGTAGGCATTGATTCCTCCTTTCGTACTATCCACAGGTCAACC
For B4, the binding result in data set [2] (label: 5' biotin) is “no binding”; in the data set with SARS-CoV-2 spike RBD (label: 5' biotin), “binds”; in data set [1], “binds”.

For the molecule AATGCGTGGGAAGGGTGGGTGGGAG (ssDNA) [S1_A3_F17], the binding result in data set [1] is recorded as “binds”.

B5: S1_A3_F12 (ssDNA)
DNA: CCAGTGTAGACTACTCAATGCGTGGGAAGGGTGGGTGGGAGCATTGATAACTCGGAGGAGTGTA
With B5, the binding result in data set [1] is “binds”.

B6: S1_C3-A (ssDNA)
DNA: CCAGTGTAGACTACTCAATGCTGTGTTGACTTGATCCTGTGGCATATGGGTGGGAGGGCGGGTACTATCCACAGGTCAACC
For the molecule B6, the binding result in data set [2] (label: 5' biotin) is “no binding”; in the data set with SARS-CoV-2 spike RBD (label: 5'-biotin) it was “binds”; in data set [1], “no binding”.

B7: S1_B9 (ssDNA)
DNA: CCAGTGTAGACTACTCAATGCTGTGTTGACTTGATCCTGTGGTATATGGGTGGGAGGGCGGGTACTATCCACAGGTCAACC
Consider B7, for which the binding result is “no binding” in data set [2] (label: 5' biotin), “binds” in the data set with SARS-CoV-2 spike RBD (label: 5' biotin) and “binds” in data set [1].

B8: S1_B4 (ssDNA)
DNA: CCAGTGTAGACTACTCAATGCTGTGTTGACTTGATCCTGTGGTATATGGGTGGGAGGGAGGGTACTATCCACAGGTCAACC
In the case of B8, the results for the binding result (in data set [2] (label: 5' biotin); with SARS-CoV-2 spike RBD (label: 5' biotin); in data set [1]) were “no binding”, “binds” and “binds”, respectively.

B9: S1_D6 (ssDNA)
DNA: CCAGTGTAGACTACTCAATGCTACTGACTCATCTGCCGAATCCAAACCCGACCAGTCCACGGTACTATCCACAGGTCAACC
On to B9, for which the results for the binding result (in data set [2] (label: 5' biotin); with SARS-CoV-2 spike RBD (label: 5'-biotin); in data set [1]) were “no binding”, “binds” and “no binding”, respectively.

B10: S1_A8_F13 (ssDNA)
DNA: AATGCTGTGTTGACTTGATCCTGTGGTATATGGGTGGGAGGGTCGGGTACTATCCACAGGTCAAC
As for B10, in data set [1], the binding result is reported as “binds”.

B11: S1_E3 (ssDNA)
DNA: CCAGTGTAGACTACTCAATGCCGATGGGTCGGGTGGGTGGGTAGGCATTGATCGCTCCTCCGTACTATCCACAGGTCAACC
Regarding B11, the values for the binding result (in data set [2] (label: 5'-biotin); with SARS-CoV-2 spike RBD (label: 5'-biotin); in data set [1]) were “no binding”, “binds” and “binds”, respectively.

B12: S1_B1 (ssDNA)
DNA: CCAGTGTAGACTACTCAATGCCGATGGGTCGGGTGGGTGGGTAGGCATTGATCGCTCCTCAGTACTATCCACAGGTCAACC
Regarding B12, the binding result in data set [2] (label: 5' biotin) was “no binding”; in the data set with SARS-CoV-2 spike RBD (label: 5' biotin) it was “binds”; in data set [1] it was “binds”.

B13: S1_A8_F14 (ssDNA)
DNA: ACTTGATCCTGTGGTATATGGGTGGGAGGGTCGGGTACTATCCACAGGTCAAC
As to B13, the binding result in data set [1] was “binds”.

B14: S1_A3_F11 (ssDNA)
DNA: CCAGTGTAGACTACTCAATGCGTGGGAAGGGTGGGTGGGAGCATTGATAACTC
For the molecule B14, the binding result in data set [1] is given as “binds”.

ACTTGATCCTGTGGTATATGGGTGGGAGGGTCGGGT (ssDNA) [S1_A8_F20]: the binding result in data set [1] is recorded as “binds”.

In the case of GGTATATGGGTGGGAGGGTCGGGT (ssDNA) [S1_A8_F22], the binding result in data set [1] was “binds”.

B15: S1_E5 (ssDNA)
DNA: CCAGTGTAGACTACTCAATGCCACCTCCTTTTCCGTTTCTTGTATCATGCTACTATCCTGTGTACTATCCACAGGTCAACC
On to B15, for which the values for the binding result (in data set [2] (label: 5' biotin); in the data set with SARS-CoV-2 spike RBD (label: 5'-biotin); in data set [1]) were “no binding”, “binds” and “no binding”, respectively.

B16: S1_A1-B (ssDNA)
DNA: CCAGTGTAGACTACTCAATGCGGCTGTGTGACTTGACCTCTGGATATGGGAGGGAGGGCGGGTACTATCCACAGGTCAACC
For the molecule B16, the binding result is on record as “no binding” in data set [2] (label: 5' biotin), “binds” with SARS-CoV-2 spike RBD (label: 5' biotin) and “binds” in data set [1].

B17: S1_A6_F12 (ssDNA)
DNA: CCAGTGTAGACTACTCAATGCTGTTATGACTTGACCTTGGGTTATGGGTTTGGGCGGGAGGGTA
In the case of B17, in data set [1], the binding result is given as “binds”.

B18: S1_C1-A (ssDNA)
DNA: CCAGTGTAGACTACTCAATGCTGTGTTGACTTGATCCTGTGGTATTTGGGTGGGAGGGGCGGGTACTATCCACAGGTCAACC
B18: the binding result in data set [2] (label: 5'-biotin) is “no binding”; in the data set with SARS-CoV-2 spike RBD (label: 5' biotin), “binds”; in data set [1] it was “binds”.

B19: S1_B12-B (ssDNA)
DNA: CCAGTGTAGACTACTCAATGCTGTGTTGACTTGATCCTGTGGTATATGGGTGGGAGGGATGGGTACTATCCACAGGTCAACC
For the molecule B19, the binding result in data set [2] (label: 5' biotin) is reported as “no binding”; with SARS-CoV-2 spike RBD (label: 5'-biotin) it was “binds”; in data set [1], “no binding”.

B20: S1_A6_F14 (ssDNA)
DNA: ACTTGACCTTGGGTTATGGGTTTGGGCGGGAGGGTACTATCCACAGGTCAACC
Turning to B20, the binding result in data set [1] is “binds”.

B21: S1_A4 (ssDNA)
DNA: CCAGTGTAGACTACTCAATGCGTGGGAAGGGTGGGCGGGAGCATTGATAACTCGGAGGAGCGTACTATCCACAGGTCAACC
In the case of B21, the binding result is “no binding” in data set [2] (label: 5' biotin), “binds” with SARS-CoV-2 spike RBD (label: 5' biotin) and “binds” in data set [1].

For CCAGTGTAGACTACTCAATGCGTGGGAAGGGTGGGTGGGA (ssDNA) [S1_A3_F9], in data set [1], the binding result is given as “binds”.

B22: S1_D11-B (ssDNA)
DNA: CCAGTGTAGACTACTCAATGCCGGCCGGGAGGGAGGGGTGGGTAAAGCCGCGCAACATATAGTACTATCCACAGGTCAACC
B22: the binding result (in data set [2] (label: 5'-biotin); with SARS-CoV-2 spike RBD (label: 5'-biotin); in data set [1]) was “binds” each time.

B23: S1_A6_F13 (ssDNA)
DNA: AATGCTGTTATGACTTGACCTTGGGTTATGGGTTTGGGCGGGAGGGTACTATCCACAGGTCAACC
Turning to B23, the binding result in data set [1] is recorded as “binds”.

B24: S1_A9 (ssDNA)
DNA: CCAGTGTAGACTTACACCTGCAGTGTTCACGAGGGCCGGCGGTATATGGGCGGTTGATACGAGTACTATCCACAGGTCAACC
Regarding B24, the binding result in data set [2] (label: 5' biotin) is listed as “no binding”; in the data set with SARS-CoV-2 spike RBD (label: 5' biotin), “binds”; in data set [1], “binds”.

B25: S1_E6 (ssDNA)
DNA: CCAGTGTAGACTACTCAATGCCCAGTGGCGAGCGACTTTTTATGTAAGAACATCGATTTTCCATGGTACTATCCACAGGTCAACC
As to B25, the binding result is “no binding” in data set [2] (label: 5' biotin), “binds” in the data set with SARS-CoV-2 spike RBD (label: 5'-biotin) and “no binding” in data set [1].

B26: S1_A8_F12 (ssDNA)
DNA: CCAGTGTAGACTACTCAATGCTGTGTTGACTTGATCCTGTGGTATATGGGTGGGAGGGTCGGGT
B26: the binding result in data set [1] is recorded as “binds”.

For GTATATGGGTGGGAGGGTCGGGTACTATCCACAGGTCAAC (ssDNA) [S1_A8_F2], the binding result in data set [1] was “binds”.

B27: S1_A12 (ssDNA)
DNA: CCAGTGTAGACTACTCAATGCCGTGTGGTGACCTTGATCCTGTGGTATATGGGTGGGAGGGGCGGGTACTATCCACAGGTCAACC
Take B27: the binding result is on record as “no binding” in data set [2] (label: 5' biotin), “binds” with SARS-CoV-2 spike RBD (label: 5' biotin) and “binds” in data set [1].
